Results: patent US20250057930A1, “ANAPLASTIC LYMPHOMA KINASE (ALK) CANCER VACCINES AND METHODS OF USE THEREOF” (The Children's Medical Center Corporation, priority 2022, published 2025)

Tested on: H2-Dd expression
Assay: H2-Dd surface expression on MHC-I^low lung tumor escaper cell lines (flow cytometry)
Assay type: cell-based, mouse
Conditions: tumor cells stimulated in vitro with IFN-γ
Experimental: To uncover the mechanisms that would explain this resistance to treatment, ex vivo escaped tumors were isolated from each treatment group. […] To understand whether the observed H2-Dd downregulation was sufficient to impair tumor rejection, tumor cells with high H2-Dd isolated from untreated mice or tumor cells with low H2-Dd isolated from ALK vaccinated mice and treated with ICI were injected. Treatment with ICI induced rejection of tumors with high H2-Dd expression (FIGS. 6D-6E), consistent with previous experiments (FIG. 3E), but not of escaped tumors with low H2-Dd expression (FIGS. 6F-6G). Finally, it was asked whether H2-Dd expression could be restored by Stimulator of IFN genes (STING) signaling that can increase MHC-I expression in other models of lung cancer.
Allophycocyanin (APC)-conjugates H-2D^d-[…] (SEQ ID NO: 22) Dextramer reagents were obtained from Immudex (Immudex, Denmark). […] After washing step, cells were ready to be acquired. When referred, also PD-1 (clone RMP1-30; BV421-PD-1, BD Pharmingen™, USA) expression was evaluated together with dextramer staining, being added together with FITC-CD8. H2-Dd MHC-I expression was measured on relapsed tumors after treatment. […] All cells were acquired in a BD Celesta flow cytometer (BD Bioscience, USA) and analyzed by using the FlowJo software (FlowJo LCC, USA). […]

B1: IFN-γ: Recombinant murine IFN-γ (R&D Systems) (protein, UniProt P01580 23-155, looked up)
Interferon gamma: HGTVIESLESLNNYFNSSGIDVEEKSLFLDIWRNWQKDGDMKILQSQIISFYLRLFEVLKDNQAISNNISVIESHLITTFFSNSKAKKDAFMSIAKFEVNNPQVQRQAFNELIRVVHQLLPESSLRKRKRSRC
H2-Dd expression: H2-Dd expression was restored
